In PMC10945505:

Tests used:
F-FGF21FL = F-FGF21FL (UniProt Q9NSA1); experiment: BLI; Octet Red 96, 30°C, 1000 rpm; F-FGF21 proteins at 50 nM captured on AHC (anti-hIgG Fc capture) biosensors, βKlotho in running buffer at 0.2743-200 nM; global fit, 1:1 binding model, monovalent KD
F-FGF21∆N = F-FGF21∆N (UniProt Q9NSA1); experiment: as above

Kd (F-FGF21FL): 10.1 nM
koff (F-FGF21FL): 0.00124 s⁻¹
kon (F-FGF21FL): 122000 M⁻¹ s⁻¹
Kd (F-FGF21∆N): 11.8 nM
koff (F-FGF21∆N): 0.00195 s⁻¹
kon (F-FGF21∆N): 166000 M⁻¹ s⁻¹
Substance: Human βKlotho (from UniProt Q86Z14 1-996) (receptor)
